Experimental data: US20140271478A1 (University of California, published 2014)

T1: mouse integrin β8 (mouse, UniProt Q0VBD0 22-767)
T1 construct: whole, on cells; also called mouse β8; itgb8
T1 sequence (looked up): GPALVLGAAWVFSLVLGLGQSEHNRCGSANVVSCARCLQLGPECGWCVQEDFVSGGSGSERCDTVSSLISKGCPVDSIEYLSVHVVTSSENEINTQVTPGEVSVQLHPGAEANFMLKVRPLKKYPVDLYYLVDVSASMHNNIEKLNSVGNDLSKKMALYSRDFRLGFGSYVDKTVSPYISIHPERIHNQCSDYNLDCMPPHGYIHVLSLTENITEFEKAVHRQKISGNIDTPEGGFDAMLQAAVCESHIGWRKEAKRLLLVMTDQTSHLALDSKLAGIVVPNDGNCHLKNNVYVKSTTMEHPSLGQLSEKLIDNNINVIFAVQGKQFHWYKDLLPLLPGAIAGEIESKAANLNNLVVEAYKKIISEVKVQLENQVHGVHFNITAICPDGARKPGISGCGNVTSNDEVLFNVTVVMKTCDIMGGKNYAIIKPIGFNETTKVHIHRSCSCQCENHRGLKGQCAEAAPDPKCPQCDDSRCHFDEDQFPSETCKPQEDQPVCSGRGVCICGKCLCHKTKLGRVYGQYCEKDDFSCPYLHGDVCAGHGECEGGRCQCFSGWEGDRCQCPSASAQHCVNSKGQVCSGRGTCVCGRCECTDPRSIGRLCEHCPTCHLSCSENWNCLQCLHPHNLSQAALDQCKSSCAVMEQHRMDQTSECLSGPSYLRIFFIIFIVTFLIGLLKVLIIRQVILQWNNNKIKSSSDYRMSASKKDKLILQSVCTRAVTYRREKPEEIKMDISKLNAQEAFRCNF

T2: human integrin β8 swap construct I G I N P (SEQ ID NO:125) (human, UniProt P26012 43-769)
T2 sequence: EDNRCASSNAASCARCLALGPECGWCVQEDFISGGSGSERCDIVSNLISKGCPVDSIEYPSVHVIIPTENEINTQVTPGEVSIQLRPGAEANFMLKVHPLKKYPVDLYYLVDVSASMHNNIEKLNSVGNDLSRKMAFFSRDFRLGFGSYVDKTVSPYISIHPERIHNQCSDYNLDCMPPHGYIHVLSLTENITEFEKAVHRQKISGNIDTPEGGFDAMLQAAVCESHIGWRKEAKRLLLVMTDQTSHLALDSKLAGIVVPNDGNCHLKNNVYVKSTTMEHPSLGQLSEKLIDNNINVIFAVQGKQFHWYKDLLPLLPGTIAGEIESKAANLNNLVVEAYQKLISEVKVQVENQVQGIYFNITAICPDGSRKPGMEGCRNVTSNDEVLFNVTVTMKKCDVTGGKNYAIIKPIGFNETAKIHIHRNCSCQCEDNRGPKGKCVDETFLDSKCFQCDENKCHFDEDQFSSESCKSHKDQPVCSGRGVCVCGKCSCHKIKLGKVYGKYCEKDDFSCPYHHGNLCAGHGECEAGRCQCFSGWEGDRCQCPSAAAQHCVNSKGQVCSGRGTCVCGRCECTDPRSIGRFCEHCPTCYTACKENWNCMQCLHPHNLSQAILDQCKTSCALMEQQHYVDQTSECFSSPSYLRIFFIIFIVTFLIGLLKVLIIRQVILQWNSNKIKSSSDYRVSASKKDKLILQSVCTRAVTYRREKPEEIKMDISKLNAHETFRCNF

T3: human integrin β8 swap construct V R I N S (SEQ ID NO:124) (human, UniProt P26012 43-769)
T3 sequence: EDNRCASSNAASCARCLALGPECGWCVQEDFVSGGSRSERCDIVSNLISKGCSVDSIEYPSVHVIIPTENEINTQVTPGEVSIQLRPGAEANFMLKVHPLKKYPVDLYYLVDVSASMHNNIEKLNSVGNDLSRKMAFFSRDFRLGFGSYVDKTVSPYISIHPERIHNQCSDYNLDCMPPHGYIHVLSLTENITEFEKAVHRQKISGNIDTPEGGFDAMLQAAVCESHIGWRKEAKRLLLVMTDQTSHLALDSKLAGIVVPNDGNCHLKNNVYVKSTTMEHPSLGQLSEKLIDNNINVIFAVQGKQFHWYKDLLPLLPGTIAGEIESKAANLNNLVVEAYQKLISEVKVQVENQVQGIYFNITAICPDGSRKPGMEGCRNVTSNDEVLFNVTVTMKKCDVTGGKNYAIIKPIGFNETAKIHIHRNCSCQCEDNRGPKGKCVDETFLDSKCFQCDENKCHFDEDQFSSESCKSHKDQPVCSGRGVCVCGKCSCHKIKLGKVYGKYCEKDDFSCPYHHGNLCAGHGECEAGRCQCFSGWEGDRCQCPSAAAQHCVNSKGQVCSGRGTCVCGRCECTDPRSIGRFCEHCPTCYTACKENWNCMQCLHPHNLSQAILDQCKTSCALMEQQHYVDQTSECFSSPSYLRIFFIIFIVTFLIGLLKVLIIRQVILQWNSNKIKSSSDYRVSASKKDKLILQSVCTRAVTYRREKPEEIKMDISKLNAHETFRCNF

T4: human integrin β8 swap construct I G I N S (SEQ ID NO:126) (human, UniProt P26012 43-769)
T4 sequence: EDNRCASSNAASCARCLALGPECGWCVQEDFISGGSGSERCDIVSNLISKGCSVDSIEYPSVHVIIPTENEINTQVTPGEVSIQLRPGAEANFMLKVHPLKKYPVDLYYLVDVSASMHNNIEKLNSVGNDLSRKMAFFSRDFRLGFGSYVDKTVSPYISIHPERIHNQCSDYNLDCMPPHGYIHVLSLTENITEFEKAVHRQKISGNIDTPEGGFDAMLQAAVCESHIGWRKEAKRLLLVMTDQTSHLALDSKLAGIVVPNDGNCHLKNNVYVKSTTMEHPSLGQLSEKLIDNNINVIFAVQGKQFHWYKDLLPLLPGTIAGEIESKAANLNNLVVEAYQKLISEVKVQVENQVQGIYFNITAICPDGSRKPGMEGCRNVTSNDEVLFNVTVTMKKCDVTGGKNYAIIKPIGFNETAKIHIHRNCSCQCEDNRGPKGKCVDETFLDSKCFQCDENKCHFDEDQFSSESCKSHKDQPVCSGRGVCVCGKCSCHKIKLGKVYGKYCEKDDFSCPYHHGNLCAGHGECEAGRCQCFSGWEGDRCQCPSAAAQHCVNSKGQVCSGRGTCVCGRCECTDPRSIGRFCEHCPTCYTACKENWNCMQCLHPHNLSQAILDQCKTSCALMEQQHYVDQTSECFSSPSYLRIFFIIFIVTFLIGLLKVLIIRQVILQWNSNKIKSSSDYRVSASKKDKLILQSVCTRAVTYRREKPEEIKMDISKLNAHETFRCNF


How the values were obtained:
mouse integrin β8 [1] = target: T1, mouse integrin β8; test: cell surface staining, flow cytometry
[2] = target: T2, human integrin β8 swap construct I G I …; test: flow cytometry, cell surface staining of β8 amino acid swap constructs
[3] = target: T3, human integrin β8 swap construct V R I …; test: as above
[4] = target: T5, human integrin αβ8 (αvβ8) expressed on cells (human, UniProt P06756 31-1048); test: as above
T5 construct: whole, on cells; β8 transfected into or endogenous on cells, unfixed or formalin fixed; also called human integrin β8; ITGB8
T5 sequence (P06756 31-1048): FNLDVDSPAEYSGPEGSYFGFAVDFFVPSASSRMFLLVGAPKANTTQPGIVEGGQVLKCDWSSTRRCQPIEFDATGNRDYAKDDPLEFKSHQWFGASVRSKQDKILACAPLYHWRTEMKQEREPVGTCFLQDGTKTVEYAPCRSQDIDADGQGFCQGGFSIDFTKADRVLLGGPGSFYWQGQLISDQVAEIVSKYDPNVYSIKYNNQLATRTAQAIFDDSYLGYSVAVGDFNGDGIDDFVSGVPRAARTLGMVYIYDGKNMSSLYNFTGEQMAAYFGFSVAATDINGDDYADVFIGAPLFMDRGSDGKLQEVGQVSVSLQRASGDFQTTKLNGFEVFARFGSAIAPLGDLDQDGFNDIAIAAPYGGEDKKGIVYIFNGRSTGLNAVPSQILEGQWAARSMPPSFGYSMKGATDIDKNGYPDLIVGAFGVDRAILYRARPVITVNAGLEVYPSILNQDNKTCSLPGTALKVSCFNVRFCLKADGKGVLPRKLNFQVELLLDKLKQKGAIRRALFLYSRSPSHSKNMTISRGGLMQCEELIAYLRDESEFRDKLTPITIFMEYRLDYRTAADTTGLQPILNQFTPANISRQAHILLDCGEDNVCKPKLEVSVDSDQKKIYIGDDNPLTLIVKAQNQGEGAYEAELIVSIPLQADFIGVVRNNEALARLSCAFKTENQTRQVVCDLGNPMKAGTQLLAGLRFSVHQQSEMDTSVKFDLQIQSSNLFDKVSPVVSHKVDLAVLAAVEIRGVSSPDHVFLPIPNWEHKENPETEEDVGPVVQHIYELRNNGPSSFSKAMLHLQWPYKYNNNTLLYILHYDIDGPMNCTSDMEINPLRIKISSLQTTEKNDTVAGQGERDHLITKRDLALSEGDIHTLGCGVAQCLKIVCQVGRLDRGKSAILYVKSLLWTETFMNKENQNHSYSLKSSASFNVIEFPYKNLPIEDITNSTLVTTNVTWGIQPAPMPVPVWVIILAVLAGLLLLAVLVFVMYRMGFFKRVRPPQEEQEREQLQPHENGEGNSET

mouse integrin β8 [5] = target: T1, mouse integrin β8; test: as above
[6] = target: T4, human integrin β8 swap construct I G I …; test: as above

Row | binding result (mouse integrin β8 [1]) | % positive [2] [%] | % positive [3] [%] | % positive [4] [%] | % positive (mouse integrin β8 [5]) [%] | % positive [6] [%] | Binder
1 | no binding | 0 | 92 | 100 | 3 | 101 | 4F1 antibody (antibody, V domains shown, Hybridoma antibody; also called hybridoma clone 4F1) VH: QVQLQQSGAELVRPGTSVKVSCKASGYAFTNYLIEWVKQRPGQGLEWIGVINPGTGGTNYNKKFKVKATLTADKSSSTAYMQLGGLTFDDSAVYFCAREGNARTYYYAMDYWGQGTSVTVSS VL: DIEMTQTPASLSASVGETVTITCRASENIYSYLVWYQQKQGKSPQVLVYNAKTLAEGVPSRFSGSGSGTQFSLKINSLQPEDFGSYYCQHHNGTPYTFGGGTKLEIKR
2 | no binding | 1 | 102 | 100 | 6 | 104 | 6B9 antibody (antibody, V domains shown, Hybridoma antibody; also called hybridoma clone 6B9) VH: QVQLQQSGAELVRPGTSVKVSCKASGYAFTDYLIEWVKQRPGQGLEWIGVINPETGGTNYNAKFKGKATLTADKSSSSAYMQLSSLTSGDSAVYFCAREAGNYIYAMDYWGQGTSVTVSS VL: DIQMTQSPASLSASVGETVTITCRASVNIYSYLVWYQQKQGKSPQLLVHNAKTLAEGVPSRFSGSGSGTQFSLKINSLQPEDFGSYYCQHHHGTPYTFGGGTKLEIKR
